According to publication PMC5146272, “Structure of the RBM7–ZCCHC8 core of the NEXT complex reveals connections to splicing factors” (Nature Communications, 2016):
One block for each binder: values may come before it.

Experiments:
RBM7 1-98 (RRM) = target: T1, RBM7 1-98 (RRM) (Homo sapiens, UniProt Q9Y580 1-98); experiment: fluorescence anisotropy; KD value only in inset of the figure, not in material; 20 mM Tris/HCl pH 7.5, 150 mM NaCl, 2 mM DTT, 20 °C, 10 nM RNA, 50 µl; conditions: protein: recombinant; label: 5'-6-FAM; single strand
T1 sequence: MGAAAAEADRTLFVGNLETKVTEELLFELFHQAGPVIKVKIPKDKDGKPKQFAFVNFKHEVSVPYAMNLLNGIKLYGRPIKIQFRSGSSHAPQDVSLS

[1] = target: T2, RBM7 1-98 (RRM);ZCCHC8Pro (proline-rich segment) (Homo sapiens;Homo sapiens, UniProt Q9Y580;Q6NZY4 1-98;285-324, |); experiment: fluorescence anisotropy; affinity stated similar to RBM7 alone; KD value only in figure inset; 20 mM Tris/HCl pH 7.5, 150 mM NaCl, 2 mM DTT, 20 °C, 10 nM RNA, 50 µl; conditions: protein: recombinant;recombinant; tags: ;; copies: 1;1; label: 5'-6-FAM; single strand
T2 sequence 1: T1 sequence
T2 sequence 2: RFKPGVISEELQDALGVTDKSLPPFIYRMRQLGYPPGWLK

[2] = target: T3, RBM7^1–137 (Z-tagged RBM7, residues 1–137) (human, UniProt Q9Y580 1-137); experiment: MST; 30 nM ZCCHC8^Pro-(GS)3-eYFP constant, unlabelled RBM7 1-137 titrated from 0.2 nM to 6.0 μM; 50 mM Tris/HCl pH 7.4, 150 mM NaCl, 10 mM MgCl2, 0.05% Tween 20; temperature jump analysis; triplicates; conditions: both partners purified
T3 construct: source: bacterial cells, in lysate (pull-downs); purified (MST)
T3 sequence (looked up): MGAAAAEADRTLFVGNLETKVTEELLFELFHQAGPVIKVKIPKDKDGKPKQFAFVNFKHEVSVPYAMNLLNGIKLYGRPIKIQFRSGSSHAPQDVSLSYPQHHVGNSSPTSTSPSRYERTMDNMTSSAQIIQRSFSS

Binder: UUUUUUUU (ssRNA) [U8 RNA]
binding result (RBM7 1-98 (RRM)): binds
binding result [1]: binds

Kd [2]: 28 nM
B1: ZCCHC8^Pro-(GS)3-eYFP fusion protein (domain or fragment, human, UniProt Q6NZY4 285-324, looked up)
chain: T2 sequence 2
notes: eYFP joined by a Gly-Ser linker serves as the fluorophore of the MST; source: purified; not shown: (GS)3 linker and eYFP, C-terminal, kept
